Measured values: IntAct's records for PubMed 17986458

Biological target: VHL, P40337-3

effect of a mutation on the interaction	Substance
disrupting interaction	Diacylglycerol kinase iota (Homo sapiens), O75912 P147A;P895A
disrupting interaction	Diacylglycerol kinase iota (Homo sapiens), O75912 P895A
